From the supplement of paper PMC9170038

Tests used:
MS2 coat protein [1] = assay: apparent KD of MS2 coat protein, switch OFF state (with FMN for OFF switches, without FMN for ON switches); designed switch direction (-1 OFF switch, 1 ON switch): -1; higher = weaker reporter binding; settings: FMN input: 0 or 200 uM; Eterna round: R93 (includes R88 designs)
Procedure, shortened: (§1)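 For every design, apparent KD is the median of normalised binding-curve fits from its clusters. The RNA switches were transcribed on-chip from Illumina sequencing clusters and titrated with SNAP-549-labelled MS2 coat protein (twofold steps, 0.7 or 1.5 nM to 3 µM; 0.8–1.5 h to 10–20 min per step). Titrations used 100 mM Tris-HCl pH 7.5, 80 mM KCl, 4 mM MgCl2, without or with constant ligand.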

MS2 coat protein [2] = assay: apparent KD of MS2 coat protein, switch ON state; designed switch direction (-1 OFF switch, 1 ON switch): -1; higher = weaker reporter binding; settings: FMN input: 0 or 200 uM; Eterna round: R93 (includes R88 designs)
Procedure, shortened: as §1

| Sequence | apparent KD of MS2 coat protein (MS2 coat protein [1]) | apparent KD of MS2 coat protein (MS2 coat protein [2]) |
| --- | --- | --- |
| AAAAAACAUGAGGAUCACCCAUGUCAGGAUAUGCUCAACAAUAUUCCAAAAAAGAACGGUAGAAGGGACAGGAA [Bilbo Confounded 25 - Jieux - Exclusion 1] | 0.0223 µM | 0.0304 µM |
| GGUUGGCGAGGAUAUACAUGAGGAUCACCCAUGUGAGAGAAAAAAGUGAGUAAGAAAAGUAGAAGGCGCUGACG [salish99-ex3-33] | 4.71 µM | 0.0499 µM |
| GAAAGUGGAGGAUAUACAUGAGGAUCACCCAUGUGUAAAAAUAAAUACACAAAAGAAAGUAGAAGGCCACAAAG [Mat - Exclusion 3 - Mayanna mod - D118] | 0.125 µM | 0.0306 µM |
| GAAAAGGCAGGAUAUGCAGGAUAUAGAAGGAGGAUAUAGAGACAUGAGGAUCACCCAUGUAGAAGGGCCAAAAG [salish99-ex2-11] | 0.0323 µM | 0.0426 µM |
| UACAUACAUGAGGAUCACCCAUGUCAGGAUAUGUGCUCAGUGAAAAACAAAGAAACAAGCAGAAGGGACACUAA [JR_Exc001_Sub203] | 0.0375 µM | 0.0418 µM |
| AGGGAACAUGAGGAUCACCCAUGUGAGGAUAUACAAAAGAAAAGAAAAGAAAGAAGAAGUAGAAGGUACAAGAA [Neferka] | 0.0439 µM | 0.0239 µM |
| AAAAAACAUGAGGAUCACCCAUGUCAGGAUAUCGUAAAAAAAAAAAAAAAAAAAAAUGCGAGAAGGGACUGGAA [exclusion1-cac2] | 0.0945 µM | 0.0869 µM |
| AAAAAACAUGAGGAUCACCCAUGUGAGGAUAUCCAGAAGGGAAUAAAAUAACUCGAAAGGAGAAGGCGCAAAAA [Ex 1 May 34] | 0.0262 µM | 0.0318 µM |
| AACAAACAUGAGGAUCACCCAUGUGAGGAUAUGAAAAUAAAUAAAAAUAAAAUAAAAAUCAGAAGGCACAACAA [JR_Exc001_Sub003] | 0.0282 µM | 0.0256 µM |
| AAGAAGGCAGGAUAUACAAAAUAAAAGAAAAGAAAGAAAGAACAUGAGGAUCACCCAUGUAGAAGGGCUAAGAA [Merhotepre Ini] | 0.0393 µM | 0.0509 µM |
| UAAAAUAAAGGAUAUAAAACAGAGGAUAUACAUAAAUAAAAACAUGAGGAUCACCCAUGUAGAAGGCUGAAAAU [Meechl Ex2 R2 m1] | 0.0284 µM | 0.029 µM |
| AAGAACGUAGGAUAUACAUGAGGAUCACCCAUGUAAAAGAAAGAAGGGAAAGAGAAAAGUAGAAGGACGAAGAA [Wahkare Bakenrenef] | 0.0344 µM | 0.0216 µM |
| AAUAGUGGAGGAUAUACAUGAGGAUCACCCAUGUAGAAAGGAAGUGUAUAUAUGGCGUGUAGAAGGCCAAAUAA [Mai Tai 3 ala Nando] | 0.0303 µM | 0.0323 µM |
| AAACGUAGAGGAUAUACAUAAGUAUUACGAAAGUAAUACAAACAUGAGGAUCACCCAUGUAGAAGGCUACGAAA [MOD2 of Meechl's MS2 Ex2 (MS2 riboswitches - Exlclusion 2)] | 0.028 µM | 0.0249 µM |
| AUAGUACAUGAGGAUCACCCAUGUCAGGAUAUUGGAUAUGACAUGAAAAAAAUGUUAACGAGAAGGGACUAUAA [EX1 Malc#17] | 0.0807 µM | 0.0586 µM |
| AAAAAGCUAGGAUAUACAUGAGGAUCACCCAUGUAAAAAAAAAAAAAGGGAAAAAAAAGUAGAAGGAGCAAAAA [Merankhre Mentuhotep VI] | 0.026 µM | 0.0184 µM |
| AAAAAGGGAGGAUAUACAUGAGGAUCACCCAUGUAACAGACGAAAAAGAGUCUGAAAAGUAGAAGGCCCAAAAA [65%, Moding Exclusion3-cac2, 7] | 0.0192 µM | 0.0247 µM |
| AAUUAGGUAGGAUAUACAUGAGGAUCACCCAUGUAGGAAAAAAGCUACGAAAAAGAAUGUAGAAGGACCUAAAA [Ex 3 Sunny] | 0.0187 µM | 0.0132 µM |
| CUCAAGUGAGGAUAUUAAAGAAAAGAAGAGAAAGAAAAGAAUAAGAAGGCACAUGAGGAUCACCCAUGUAAGAA [EteRNA is fun!] | 0.033 µM | 0.0264 µM |
| AGUCAGAGAGGAUAUACAUGGGAAAAAAAAGUAAGAUCCCUACAUGAGGAUCACCCAUGUAGAAGGCUCUGACA [Ex2 Design 139: Sub-opt 3] | 0.0202 µM | 0.0226 µM |
| AGCUAGUCAGGAUAUGCGAAUAUGUCAAAAGACGUGAAGGGACAUGAGGAUCACCCAUGUAGAAGGGACUAGCA [Diamond 3] | 0.0365 µM | 0.0324 µM |
| AGGGAACAUGAGGAUCACCCAUGUGAGGAUAUUCAAAAGAAAAGAAAAGAAAGAAGAAGAAGAAGGUACAAGAA [Neferkare Pepi II] | 0.0369 µM | 0.0429 µM |

| Sequence | apparent KD of MS2 coat protein (MS2 coat protein [1]) | apparent KD of MS2 coat protein (MS2 coat protein [2]) |
| --- | --- | --- |
| CAGUACUGAGGAUAUACAUGAGGAUCACCCAUGUGAUCAAGCUACGAAAGUAGCAAAUGUAGAAGGCAGUACUG [Ex3: 809] | 0.0317 µM | 0.0407 µM |
| AUAGGCCUAGGAUAUACAUGAGGAUCACCCAUGUUAAUAUUUCAAACAUGAUAAACGUGUAGAAGGAGGAAUAA [JR_Exc003_Sub303] | 0.0508 µM | 0.0417 µM |
| AAAACGAUAGGAUAUACAUGAGGAUCACCCAUGUUAAAAUGUAGAAGGCUGAAAAAAAGUAGAAGGAUCAAAAA [EXC - 3] | 0.0344 µM | 0.0295 µM |
| GGUUGUCGAGGAUAUACAUGAGGAUCACCCAUGUGAGAGAAAAAAGUGAGAAAGAAAAGUAGAAGGUGGUGACG [salish99-ex3-71] | 0.0929 µM | 0.0576 µM |
| AGCUAGUCAGGAUAUACGAACAGGUCAAAAGACGUAAGGGAACAUGAGGAUCACCCAUGUAGAAGGGACUAGCA [Diamond 52] | 0.0843 µM | 0.0329 µM |
| AAGAAGCAAGGAUAUACAUGAGGAUCACCCAUGUAAAAGAAAGAGGGAAAAGAGAAAAGUAGAAGGUGCAAGAA [Ptolemy VI Philometor] | 0.0544 µM | 0.0226 µM |
| AAAAAUUGAGGAUAUACAUGAGGAUCACCCAUGUUAGAACAAAAAAAAGGGAAAGAAAGUAGAAGGCAAUAAAA [Ex 3 May 26] | 0.0269 µM | 0.02 µM |
| GAAAAGUGAGGAUAUACAUGAGGAUCACCCAUGUGUAUAAAAAAUUACACAAAAGAAAGUAGAAGGCACUAAAG [Mat - Exclusion 3 - Mayanna mod - D113] | 0.0265 µM | 0.0177 µM |
| AAAAAUGGAGGAUAUACAUGAGGAUCACCCAUGUGUGGGCAUACUGUGUCGGCGUCAGGUAGAAGGCCAAAAAA [Gilly Gone Silly 27 - Jieux - Exclusion 3] | 0.0478 µM | 0.0365 µM |
| AACGUACAUGAGGAUCACCCAUGUUAGGAUAUAUAUACAGGAAAACAUUCUAAUGUAAAUAGAAGGAACGAAAA [Bilbo Confounded 21 - Jieux - Exclusion 1] | 0.0108 µM | 0.0171 µM |
| AAAAACCGAGGAUAUACAUGAGGAUCACCCAUGUAAAAAAAAAAAAAGGGAAAAAAAAGUAGAAGGCGGAAAAA [Djehuti Sekhemresementawy] | 0.0348 µM | 0.0262 µM |
| UCGAUGCGAGGAUAUACUAAGGCAACUACUGCAGCUCAAAAACAUGAGGAUCACCCAUGUAGAAGGCGCAUAUA [JR_Exc002_Sub304] | 0.0181 µM | 0.0196 µM |
| AAAAAACAUGAGGAUCACCCAUGUGAGGAUAUGAAAAUACUAAGACAACUGUAAUCAAUCAGAAGGCACAACAA [JR_Exc--1_Sub1208] | 0.0196 µM | 0.0188 µM |
| AACUAGUCAGGAUAUGCGAACAGAUAAUAAGCUACACAAAAGCAGAAGGGACAUGAGGAUCACCCAUGUAAAUA [JR_Exc004_Sub502] | 0.033 µM | 0.0393 µM |
| AAAAAACAUGAGGAUCACCCAUGUAAGGAUAUGCUAAAAAACGCAAAAAAAGCGAAUAGCAGAAGGUACAAAAG [Mat - Exclusion 1 - Eli mod - D81] | 0.0705 µM | 0.0364 µM |
| AAAAAGUUAGGAUAUACAUGAGGAUCACCCAUGUGCACAUAUGGAGAAUAUGGUAGUAGUAGAAGGGACAAAAA [EX2 Malc#16] | 0.0333 µM | 0.0303 µM |
| AAGAACGGAGGAUAUACAAAAUAAAAGAAAAGAAAGAAAGAACAUGAGGAUCACCCAUGUAGAAGGCUGAAGAA [Merneferre Ay I] | 0.0352 µM | 0.0357 µM |
| AAAAAGUCAGGAUAUGUCAAAAGUCACAAAAGUGACAAAAGACAGAAGGGACAUGAGGAUCACCCAUGUGGAAA [Mod of Eli - Late G segment 1] | 0.134 µM | 0.0893 µM |
| AAUAAGUGAGGAUAUCGAAGACUGUCGAAAAGACAGUCGAACGAGAAGGCACAUGAGGAUCACCCAUGUGAGGG [Mat - Exaclusion 4 - Eli mod - D69] | 0.107 µM | 0.13 µM |
| UAGAACCUAGGAUAUACUUGGGAAACUAAUGCAAAGAUAUAACAUGAGGAUCACCCAUGUAGAAGGAGGAGUAA [JR_Exc002_Sub019] | 0.132 µM | 0.0845 µM |
| AAGGGACAUGAGGAUCACCCAUGUCAGGAUAUGCAAACAACAAACAACAAACAACAAAGCAGAAGGGACAAAAA [63%, Olong, 5] | 0.0241 µM | 0.0291 µM |
| AAAGGAGCAGGAUAUACAUGAGGAUCACCCAUGUAAAAAACAUAAUAAAAGAACUUAUGUAGAAGGGCUCCAAA [69%, Moding Meechl, 10] | 0.228 µM | 0.0482 µM |
